Source: patent EP4714971A1 (Shanghai Hansoh Biomedical Co., Ltd., dated 2024)

Legend:
SEZ6L2-Fc = biological target: T1, SEZ6L2-Fc (human, UniProt Q6UXD5 28-844, limits assumed); experiment: ELISA, coated Fc fusion protein at 1 ug/mL
T1 construct: The construct is not described beyond its name; also called SEZ6L2 protein; Human SEZ6L2; not shown: Fc

SEZ6L-Fc protein = biological target: T2, SEZ6L-Fc protein (human, UniProt Q9BYH1 29-958, limits assumed); experiment: ELISA, coated Fc fusion protein at 1 ug/mL
T2 construct: The construct is not described beyond its name; also called SEZ6L protein; Human SEZ6L1; not shown: Fc
T2 sequence (looked up): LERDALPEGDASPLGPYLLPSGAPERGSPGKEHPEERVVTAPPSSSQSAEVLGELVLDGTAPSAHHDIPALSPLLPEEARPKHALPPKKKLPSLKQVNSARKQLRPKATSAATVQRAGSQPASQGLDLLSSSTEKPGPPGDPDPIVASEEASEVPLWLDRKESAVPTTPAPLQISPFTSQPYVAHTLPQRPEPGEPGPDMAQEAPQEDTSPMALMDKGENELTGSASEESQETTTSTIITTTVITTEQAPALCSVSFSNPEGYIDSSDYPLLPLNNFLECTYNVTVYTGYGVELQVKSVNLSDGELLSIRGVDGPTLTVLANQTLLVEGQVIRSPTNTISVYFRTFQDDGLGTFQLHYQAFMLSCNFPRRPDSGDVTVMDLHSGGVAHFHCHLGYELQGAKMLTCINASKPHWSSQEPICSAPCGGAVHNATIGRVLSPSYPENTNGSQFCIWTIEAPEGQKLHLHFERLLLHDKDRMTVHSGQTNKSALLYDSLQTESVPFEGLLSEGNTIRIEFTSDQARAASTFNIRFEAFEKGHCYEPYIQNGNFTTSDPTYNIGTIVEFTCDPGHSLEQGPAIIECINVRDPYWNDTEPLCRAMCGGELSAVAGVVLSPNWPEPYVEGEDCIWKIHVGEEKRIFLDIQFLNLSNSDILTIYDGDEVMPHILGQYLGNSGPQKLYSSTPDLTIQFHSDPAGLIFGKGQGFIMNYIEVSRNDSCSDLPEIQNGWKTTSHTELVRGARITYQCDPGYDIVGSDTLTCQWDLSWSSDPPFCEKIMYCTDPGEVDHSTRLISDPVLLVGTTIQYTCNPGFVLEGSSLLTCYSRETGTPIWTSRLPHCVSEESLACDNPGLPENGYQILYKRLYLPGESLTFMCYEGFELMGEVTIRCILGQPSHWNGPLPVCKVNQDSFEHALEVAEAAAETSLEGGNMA

T1 sequence (Q6UXD5 28-844 limits assumed): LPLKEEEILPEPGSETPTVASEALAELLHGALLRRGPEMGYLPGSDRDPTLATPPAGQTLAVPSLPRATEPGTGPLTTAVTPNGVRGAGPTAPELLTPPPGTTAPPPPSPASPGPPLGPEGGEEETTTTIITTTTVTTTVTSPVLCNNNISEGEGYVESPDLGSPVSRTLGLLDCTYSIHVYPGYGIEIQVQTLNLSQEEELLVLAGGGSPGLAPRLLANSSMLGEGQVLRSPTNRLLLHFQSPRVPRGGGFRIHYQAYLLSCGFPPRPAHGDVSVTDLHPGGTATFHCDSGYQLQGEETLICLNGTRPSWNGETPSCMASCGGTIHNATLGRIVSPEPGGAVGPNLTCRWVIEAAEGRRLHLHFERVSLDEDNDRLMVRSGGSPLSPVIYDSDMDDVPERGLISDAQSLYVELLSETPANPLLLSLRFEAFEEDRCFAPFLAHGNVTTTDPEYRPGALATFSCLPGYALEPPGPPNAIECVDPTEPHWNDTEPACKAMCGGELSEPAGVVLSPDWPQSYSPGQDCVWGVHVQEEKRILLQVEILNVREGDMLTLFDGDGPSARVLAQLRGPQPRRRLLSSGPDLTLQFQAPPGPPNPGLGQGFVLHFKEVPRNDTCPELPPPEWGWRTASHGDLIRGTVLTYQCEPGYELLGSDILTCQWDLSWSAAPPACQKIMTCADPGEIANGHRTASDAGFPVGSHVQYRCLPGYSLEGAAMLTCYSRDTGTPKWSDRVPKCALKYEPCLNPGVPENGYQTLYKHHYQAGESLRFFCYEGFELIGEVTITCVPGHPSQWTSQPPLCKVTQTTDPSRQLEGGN

binding result (SEZ6L2-Fc): no binding (tested: 10 nM)
binding result (SEZ6L-Fc protein): no binding (tested: 10 nM)
B1: PR3178 (antibody, human IgG1, kappa, V domains shown)
VH: QVQLVQSGAEVKKPGASVKVSCKASGYTFTDYEMHWVRQAPGQGLEWMGGIDPESDNTVYNQKFKGRVTLTEDTSTSTAYMELRSLRSEDTAVYYCTRGDWYFDVWGQGTTVTVSS
VL: DIVMTQSPDSLAVSLGERATINCKSSQSLLNSRTRENYLAWYQQKPGQPPKLLIYWASTRESGVPDRFSGSGSGTDFTLTISSLQAEDVAVYYCGQSYNLFTFGQGTKLEIKR
notes: Humanized, human IgG1, kappa; also called humanized antibody of cAb3009
